Data as given in PMC6668832, “Structural basis for recognition of the tumor suppressor protein PTPN14 by the oncoprotein E7 of human papillomavirus” (PLoS Biology, 2019).

B1: MBP-tagged HPV18 E7 C-terminal domain (residues 54–105) (domain or fragment)
chain: AEPQRHTMLCMCCKCEARIKLVVESSADDLRAFQQLFLNTLSFVCPWCASQQ
notes: HPV18 E7, C-terminal domain, residues 54-105; also called His6–MBP-tagged C-terminal domain of HPV18 E7; source: E. coli BL21(DE3) RIL, modified pET28a, purified; not shown: His6, N-terminal, kept; MBP, N-terminal, kept
B2: C-terminal domain (residues 54–105) of HPV18 E7, His6-MBP tag removed (domain or fragment)
chain: B1 chain
notes: HPV18 E7, C-terminal domain, residues 54-105; Homodimer by SEC-MALS; one zinc ion per monomer; also called HPV18 E7 C-terminal domain; HPV18 E7(54–105); source: E. coli BL21(DE3) RIL, modified pET28a, purified (Ni-NTA, TEV, second Ni-NTA, HiTrap Q, Superdex 75); not shown: His6, N-terminal, cleaved; MBP, N-terminal, cleaved
B3: PTP domain (residues 886–1187) of human PTPN14 (domain or fragment, UniProt Q15678 886-1187, looked up)
chain: VDATRVPMDERFRTLKKKLEEGMVFTEYEQIPKKKANGIFSTAALPENAERSRIREVVPYEENRVELIPTKENNTGYINASHIKVVVGGAEWHYIATQGPLPHTCHDFWQMVWEQGVNVIAMVTAEEEGGRTKSHRYWPKLGSKHSSATYGKFKVTTKFRTDSVCYATTGLKVKHLLSGQERTVWHLQYTDWPDHGCPEDVQGFLSYLEEIQSVRRHTNSMLEGTKNRHPPIVVHCSAGVGRTGVLILSELMIYCLEHNEKVEVPMMLRLLREQRMFMIQTIAQYKFVYQVLIQFLQNSRLI
notes: human PTPN14, catalytic PTP domain, residues 886-1187, untagged; also called PTPN14 PTP domain; nonreceptor-type protein tyrosine phosphatase 14; source: E. coli BL21(DE3) RIL, pET21a, purified (alone or copurified with E7)
B4: C-terminal domain of E7 from HPV16 (residues 45–98) (domain or fragment)
chain: AEPDRAHYNIVTFCCKCDSTLRLCVQSTHVDIRTLEDLLMGTLGIVCPICSQKP
notes: HPV16 E7, C-terminal domain, residues 45-98; Purified similarly to HPV18 E7, whose tag was removed with TEV; the complex mass of 80–85 kDa fits a cleaved tag; also called HPV16 E7 C-terminal domain; source: E. coli, MBP-modified pET28a, copurified with PTPN14 by mixing cell lysates
B5: C-terminal domain of E7 from HPV11 (residues 45–98) (domain or fragment)
chain: AQPLTQHYQILTCCCGCDSNVRLVVECTDGDIRQLQDLLLGTLNIVCPICAPKP
notes: HPV11 E7, C-terminal domain, residues 45-98; Purified similarly to HPV18 E7, whose tag was removed with TEV; the complex mass of 80–85 kDa fits a cleaved tag; also called HPV11 E7 C-terminal domain; source: E. coli, MBP-modified pET28a, copurified with PTPN14 by mixing cell lysates
B6: C-terminal domain of E7 from HPV1a (residues 39–93) (domain or fragment)
chain: LVSPQQPYAVVASCAYCEKLVRLTVLADHSAIRQLEELLLRSLNIVCPLCTLQRQ
notes: HPV1a E7, C-terminal domain, residues 39-93; Purified similarly to HPV18 E7, whose tag was removed with TEV; the complex mass of 80–85 kDa fits a cleaved tag; also called HPV1a E7 C-terminal domain; source: E. coli, MBP-modified pET28a, copurified with PTPN14 by mixing cell lysates
B7: PTP domain of PTPN21 (residues 873–1174) (domain or fragment, human, UniProt Q16825 873-1174, looked up)
chain: EVATRATNDERCKILEQRLEQGMVFTEYERILKKRLVDGECSTARLPENAERNRFQDVLPYDDVRVELVPTKENNTGYINASHIKVSVSGIEWDYIATQGPLQNTCQDFWQMVWEQGIAIIAMVTAEEEGGREKSFRYWPRLGSRHNTVTYGRFKITTRFRTDSGCYATTGLKMKHLLTGQERTVWHLQYTDWPEHGCPEDLKGFLSYLEEIQSVRRHTNSTSDPQSPNPPLLVHCSAGVGRTGVVILSEIMIACLEHNEVLDIPRVLDMLRQQRMMLVQTLCQYTFVYRVLIQFLKSSRLI
notes: human PTPN21, PTP domain, residues 873-1174; also called PTPN21 PTP domain; PTPD1; source: E. coli, modified pPRoEX HTa, purified (Ni-NTA, TEV, second Ni-NTA); not shown: His10, N-terminal, cleaved; green fluorescent protein, N-terminal, cleaved

Tests used:
[1] = target: B7; assay: ITC; 25 °C, VP-ITC; PTP domain titrated into MBP-tagged HPV18 E7 (0.2 mM into 10 μM in Fig 1B); 20 mM Tris-HCl pH 7.5, 100 mM NaCl, 10 mM β-mercaptoethanol; one-to-one model; triplicate; conditions: both partners purified
[2] = target: B3; assay: as above; conditions: both partners purified
[3] = target: the molecule itself; assay: SEC-MALS; Superdex 75 10/300 GL; 50 mM Tris-HCl pH 7.5, 200 mM NaCl, 2 mM dithiothreitol; 6 mg/mL E7 C-terminal domain, 3 mg/mL PTP domain or copurified complex
[4] = target: C-terminal domain of E7 from HPV38 (residues 45–100) (human papillomavirus 38 (HPV38)); assay: as above
[5] = target: C-terminal domain of E7 from HPV4 (residues 44–100) (human papillomavirus 4 (HPV4)); assay: as above
[6] = target: B4; assay: as above; conditions: both partners purified
[7] = target: B2; assay: as above; conditions: both partners purified
[8] = target: B5; assay: as above; conditions: both partners purified
[9] = target: B6; assay: as above; conditions: both partners purified
[10] = target: B3; assay: SEC; copurified from mixed E. coli lysates (Ni-NTA, TEV, second Ni-NTA); final HiLoad 26/600 Superdex 75 pg gel filtration, fractions on SDS-PAGE with Coomassie staining; conditions: both partners purified

Chain of C-terminal domain of E7 from HPV4 (residues 44–100) (human papillomavirus 4 (HPV4)) (Q07857 44-100 limits assumed): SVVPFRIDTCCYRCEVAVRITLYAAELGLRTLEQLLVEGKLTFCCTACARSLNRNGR
Chain of C-terminal domain of E7 from HPV38 (residues 45–100) (human papillomavirus 38 (HPV38)) (Q80908 45-100 limits assumed): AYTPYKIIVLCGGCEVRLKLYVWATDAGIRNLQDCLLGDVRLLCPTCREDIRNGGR

B1
Kd [1]: 5.81 nM
Kd [2]: 18.2 nM

B2
stoichiometry N [3]: 2

B3
stoichiometry N (PTPN14 per E7 (2:2)) [4]: 1
stoichiometry N (PTPN14 per E7 (2:2)) [5]: 1
stoichiometry N [6]: 1 PTPN14 per E7 (2:2)
stoichiometry N [7]: 1 PTPN14 per E7 (2:2)
stoichiometry N [8]: 1 PTPN14 per E7 (2:2)
stoichiometry N [9]: 1 PTPN14 per E7 (2:2)

B4
binding result [10]: binds

B5
binding result [10]: binds

B6
binding result [10]: binds

B7
stoichiometry N [7]: 1 PTPN21 per E7 (2:2)
